Each block holds one molecule with its values, some of them ahead of it.
What was measured:
[1] = biological target: mannose-6-phosphate receptor (M6PR) expressed on CCD986SK cells (human skin fibroblasts) (human); assay: cell-based or functional assay
[2] = biological target: mannose-6-phosphate receptor (M6PR); assay: SPR (BIACORE T200), M6PR on CM5 chip; the reference itself
[3] = biological target: mannose-6-phosphate receptor (M6PR); assay: SPR (BIACORE T200), M6PR amine-coupled to CM5 chip, analyte 200 nM to 12.5 nM in HBS-EP
[4] = biological target: mannose-6-phosphate receptor (M6PR); assay: SPR (BIACORE T200), M6PR amine-coupled to CM5 chip, analyte 100 nM to 6.24 nM, HBS-EP pH 7.5, 1:1 Langmuir model
[5] = biological target: mannose-6-phosphate receptor (M6PR); assay: SPR (BIACORE T200), M6PR amine-coupled to CM5 chip, analyte 50 nM to 3.125 nM, HBS-EP pH 7.5, 1:1 Langmuir model
[6] = biological target: mannose-6-phosphate receptor (M6PR); assay: SPR, summary table; relative to galsulfase
[7] = biological target: mannose-6-phosphate receptor (M6PR); assay: SPR, summary table; relative to agalsidase β
[8] = biological target: mannose-6-phosphate receptor (M6PR); assay: SPR (BIACORE T200), M6PR amine-coupled to CM5 chip
[9] = biological target: mannose-6-phosphate receptor (M6PR); assay: SPR (BIACORE T200), M6PR on CM5 chip; relative to agalsidase beta
[10] = biological target: mannose-6-phosphate receptor (M6PR); assay: SPR, summary table; relative to iduronidase
[11] = biological target: mannose-6-phosphate receptor (M6PR); assay: SPR (BIACORE T200), M6PR amine-coupled to CM5 chip, analyte 100 nM to 6.25 nM, HBS-EP pH 7.5, 1:1 Langmuir model
[12] = biological target: mannose-6-phosphate receptor (M6PR); assay: SPR, summary table; relative to imiglucerase
[13] = biological target: mannose-6-phosphate receptor (M6PR); assay: SPR (BIACORE T200), M6PR amine-coupled to CM5 chip, analyte 200 nM to 12.5 nM, HBS-EP pH 7.5, 1:1 Langmuir model

Molecule: iduronidase (from UniProt P35475 26-653) (enzyme)
Kd [5]: 0.59 nM | koff [5]: 0.00565 s⁻¹ | kon [5]: 1.69e+07 M⁻¹ s⁻¹

Molecule: long-acting galsulfase conjugate (galsulfase-polyethylene glycol linker-immunoglobulin Fc conjugate) (from UniProt P15848 39-533)
Binding affinity to M6PR (vs. 1st ERT) [6]: 25% | Kd [4]: 1.48 nM | koff [4]: 0.00122 s⁻¹ | kon [4]: 832000 M⁻¹ s⁻¹

B1: long-acting agalsidase β conjugate (agalsidase β-polyethylene glycol linker-immunoglobulin Fc conjugate) (protein, part only; not given: Fc and PEG linker, UniProt P06280 32-429, looked up, not shown: a dimerising Fc or GST)
chain: LDNGLARTPTMGWLHWERFMCNLDCQEEPDSCISEKLFMEMAELMVSEGWKDAGYEYLCIDDCWMAPQRDSEGRLQADPQRFPHGIRQLANYVHSKGLKLGIYADVGNKTCAGFPGSFGYYDIDAQTFADWGVDLLKFDGCYCDSLENLADGYKHMSLALNRTGRSIVYSCEWPLYMWPFQKPNYTEIRQYCNHWRNFADIDDSWKSIKSILDWTSFNQERIVDVAGPGGWNDPDMLVIGNFGLSWNQQVTQMALWAIMAAPLFMSNDLRHISPQAKALLQDKDVIAINQDPLGKQGYQLRQGDNFEVWERPLSGLAWAVAMINRQEIGGPRSYTIAVASLGKGVACNPACFITQLLPVKRKLGFYEWTSRLRSHINPTGTVLLQLENTMQMSLKDLL
modifications: N-terminus covalently linked to a 10 kDa polyethylene glycol linker (ALD-PEG-ALD), whose other end is linked to the N-terminus of one chain of the immunoglobulin Fc
Intracellular uptake (vs. 1st ERT) [1]: 47% | intracellular uptake activity (Kuptake) [1]: 29.3 nM | Binding affinity to M6PR (vs. 1st ERT) [7]: 68% | Kd [8]: 29.6 nM | koff [8]: 0.00277 s⁻¹ | kon [8]: 80000 M⁻¹ s⁻¹ | relative KD / binding affinity (% of agalsidase beta) [9]: 67.6% | relative ka (% of agalsidase beta) [9]: 70.4% | relative kd (% of agalsidase beta) [9]: 101%

B3: long-acting imiglucerase conjugate (imiglucerase-polyethylene glycol linker-immunoglobulin Fc conjugate) (protein, part only; not given: Fc and PEG linker, human, UniProt P04062 40-536, looked up, not shown: a dimerising Fc or GST)
chain: ARPCIPKSFGYSSVVCVCNATYCDSFDPPTFPALGTFSRYESTRSGRRMELSMGPIQANHTGTGLLLTLQPEQKFQKVKGFGGAMTDAAALNILALSPPAQNLLLKSYFSEEGIGYNIIRVPMASCDFSIRTYTYADTPDDFQLHNFSLPEEDTKLKIPLIHRALQLAQRPVSLLASPWTSPTWLKTNGAVNGKGSLKGQPGDIYHQTWARYFVKFLDAYAEHKLQFWAVTAENEPSAGLLSGYPFQCLGFTPEHQRDFIARDLGPTLANSTHHNVRLLMLDDQRLLLPHWAKVVLTDPEAAKYVHGIAVHWYLDFLAPAKATLGETHRLFPNTMLFASEACVGSKFWEQSVRLGSWDRGMQYSHSIITNLLYHVVGWTDWNLALNPEGGPNWVRNFVDSPIIVDITKDTFYKQPMFYHLGHFSKFIPEGSQRVGLVASQKNDLDAVALMHPDGSAVVVVLNRSSKDVPLTIKDPAVGFLETISPGYSIHTYLWRRQ
modifications: N-terminus covalently linked to a 10 kDa polyethylene glycol linker (ALD-PEG-ALD), whose other end is linked to the N-terminus of one chain of the immunoglobulin Fc
Binding affinity to M6PR (vs. 1st ERT) [12]: 22% | Kd [13]: 79.6 nM | koff [13]: 0.0039 s⁻¹ | kon [13]: 49000 M⁻¹ s⁻¹

The remaining lines, values ahead:

intracellular uptake activity (Kuptake) [1]: 13.7 nM | relative KD / binding affinity (% of agalsidase beta) [2]: 100% | relative ka (% of agalsidase beta) [2]: 100% | relative kd (% of agalsidase beta) [2]: 100% | Kd [3]: 20 nM | koff [3]: 0.00273 s⁻¹ | kon [3]: 135000 M⁻¹ s⁻¹
Molecule: agalsidase β (from UniProt P06280 32-429) (enzyme)

Kd [4]: 0.38 nM | koff [4]: 0.0013 s⁻¹ | kon [4]: 3.49e+06 M⁻¹ s⁻¹
Molecule: galsulfase (from UniProt P15848 39-533) (enzyme)

Kd [4]: 17.3 nM | koff [4]: 0.00387 s⁻¹ | kon [4]: 232000 M⁻¹ s⁻¹
Molecule: imiglucerase (from UniProt P04062 40-536) (enzyme)

Binding affinity to M6PR (vs. 1st ERT) [10]: 13% | Kd [11]: 4.72 nM | koff [11]: 0.00223 s⁻¹ | kon [11]: 474000 M⁻¹ s⁻¹
B2: long-acting iduronidase conjugate (laronidase-polyethylene linker-immunoglobulin Fc conjugate) (protein, part only; not given: Fc and PEG linker, UniProt P35475 26-653, looked up, not shown: a dimerising Fc or GST)
chain: AEAPHLVHVDAARALWPLRRFWRSTGFCPPLPHSQADQYVLSWDQQLNLAYVGAVPHRGIKQVRTHWLLELVTTRGSTGRGLSYNFTHLDGYLDLLRENQLLPGFELMGSASGHFTDFEDKQQVFEWKDLVSSLARRYIGRYGLAHVSKWNFETWNEPDHHDFDNVSMTMQGFLNYYDACSEGLRAASPALRLGGPGDSFHTPPRSPLSWGLLRHCHDGTNFFTGEAGVRLDYISLHRKGARSSISILEQEKVVAQQIRQLFPKFADTPIYNDEADPLVGWSLPQPWRADVTYAAMVVKVIAQHQNLLLANTTSAFPYALLSNDNAFLSYHPHPFAQRTLTARFQVNNTRPPHVQLLRKPVLTAMGLLALLDEEQLWAEVSQAGTVLDSNHTVGVLASAHRPQGPADAWRAAVLIYASDDTRAHPNRSVAVTLRLRGVPPGPGLVYVTRYLDNGLCSPDGEWRRLGRPVFPTAEQFRRMRAAEDPVAAAPRPLPAGGRLTLRPALRLPSLLLVHVCARPEKPPGQVTRLRALPLTQGQLVLVWSDEHVGSKCLWTYEIQFSQDGKAYTPVSRKPSTFNLFVFSPDTGAVSGSYRVRALDYWARPGPFSDPVPYLEVPVPRGPPSPGNP
modifications: N-terminus covalently linked to a 10 kDa polyethylene glycol linker (ALD-PEG-ALD), whose other end is linked to the N-terminus of one chain of the immunoglobulin Fc
